Measured values taken from patent publication US20160264634A1.

What was measured:
mKv1.3 channel (mouse) = mKv1.3 channel (mouse) (UniProt P16390); assay: cell-based or functional assay
mKv1.1 channel (mouse) = mKv1.1 channel (mouse) (UniProt P16388); assay: cell-based or functional assay
Sequence of mKv1.1 channel (mouse) (P16388 whole entry): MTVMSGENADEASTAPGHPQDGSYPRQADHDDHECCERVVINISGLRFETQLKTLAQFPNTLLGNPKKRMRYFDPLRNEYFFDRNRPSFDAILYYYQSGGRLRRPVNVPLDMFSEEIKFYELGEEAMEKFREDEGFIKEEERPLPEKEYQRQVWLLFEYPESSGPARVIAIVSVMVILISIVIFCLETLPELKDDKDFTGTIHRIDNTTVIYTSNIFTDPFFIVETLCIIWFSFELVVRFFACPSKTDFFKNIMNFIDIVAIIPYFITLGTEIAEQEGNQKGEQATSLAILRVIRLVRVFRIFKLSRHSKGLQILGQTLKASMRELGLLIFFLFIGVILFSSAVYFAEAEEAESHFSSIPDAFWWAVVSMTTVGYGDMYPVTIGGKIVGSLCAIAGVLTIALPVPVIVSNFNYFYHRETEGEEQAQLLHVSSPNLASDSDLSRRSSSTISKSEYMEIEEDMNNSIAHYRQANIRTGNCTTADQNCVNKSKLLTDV

Sequence of mKv1.3 channel (mouse) (P16390 whole entry): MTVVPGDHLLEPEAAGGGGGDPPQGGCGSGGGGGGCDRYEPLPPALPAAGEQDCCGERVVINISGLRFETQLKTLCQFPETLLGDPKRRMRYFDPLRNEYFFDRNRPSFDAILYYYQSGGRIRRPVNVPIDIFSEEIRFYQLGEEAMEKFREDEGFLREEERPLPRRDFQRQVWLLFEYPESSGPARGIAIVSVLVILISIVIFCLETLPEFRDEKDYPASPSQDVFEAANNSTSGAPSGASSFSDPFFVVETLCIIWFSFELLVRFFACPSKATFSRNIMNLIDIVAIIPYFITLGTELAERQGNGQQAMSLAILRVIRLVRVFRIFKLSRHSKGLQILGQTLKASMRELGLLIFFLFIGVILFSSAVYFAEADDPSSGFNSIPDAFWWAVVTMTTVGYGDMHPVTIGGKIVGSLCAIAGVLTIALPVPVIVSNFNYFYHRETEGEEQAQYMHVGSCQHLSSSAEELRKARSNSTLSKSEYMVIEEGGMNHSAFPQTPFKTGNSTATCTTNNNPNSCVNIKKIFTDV
Sequence of ShK (P29187 whole entry): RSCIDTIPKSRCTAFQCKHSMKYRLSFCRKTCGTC
Sequence of ShK-K-amide (P29187 whole entry): as above

Q: Which results are given for “ShK (from UniProt P29187 1-35) (peptide)”?
A: IC50 of current block, whole-cell patch-clamp (mKv1.3 channel (mouse)): 0.009 nM; IC50 of current block, whole-cell patch-clamp (mKv1.1 channel (mouse)): 0.023 nM

Q: “ShK-K-amide (from UniProt P29187 1-35) (peptide)” was tested. Which IC50 of current block, whole-cell patch-clamp (mKv1.3 channel (mouse)) did it give?
A: Its IC50 of current block, whole-cell patch-clamp is 0.026 nM.

Q: With “ShK-amide (from UniProt P29187 1-35) (peptide)” as the substance, how does the IC50 of current block, whole-cell patch-clamp (mKv1.3 channel (mouse)) read?
A: Its IC50 of current block, whole-cell patch-clamp is 0.035 nM.

Q: And the IC50 of current block, whole-cell patch-clamp (mKv1.1 channel (mouse))?
A: The IC50 of current block, whole-cell patch-clamp was 0.037 nM.
